In article PMC5490261, “The structural and functional characterization of human RecQ4 reveals insights into its helicase mechanism”:

Tests used:
Assay in all cases: fluorescence polarization; WT-like, low nM apparent Kd; 20 mM HEPES pH 8.0, 10 mM NaCl, 5% glycerol, 1 mM MgCl2, 0.5 mM TCEP, 0.5 nM Cy3-ssDNA; temperature not stated
Conditions in all cases: protein: recombinant; tags: Trx-His6 removed by 3C protease; label: 5' Cy3
[1] = target: T1, RecQ4 427-1208 K843A/R844A/R848A (Homo sapiens, UniProt O94761 427-1208, K843A;R844A;R848A)
T1 sequence: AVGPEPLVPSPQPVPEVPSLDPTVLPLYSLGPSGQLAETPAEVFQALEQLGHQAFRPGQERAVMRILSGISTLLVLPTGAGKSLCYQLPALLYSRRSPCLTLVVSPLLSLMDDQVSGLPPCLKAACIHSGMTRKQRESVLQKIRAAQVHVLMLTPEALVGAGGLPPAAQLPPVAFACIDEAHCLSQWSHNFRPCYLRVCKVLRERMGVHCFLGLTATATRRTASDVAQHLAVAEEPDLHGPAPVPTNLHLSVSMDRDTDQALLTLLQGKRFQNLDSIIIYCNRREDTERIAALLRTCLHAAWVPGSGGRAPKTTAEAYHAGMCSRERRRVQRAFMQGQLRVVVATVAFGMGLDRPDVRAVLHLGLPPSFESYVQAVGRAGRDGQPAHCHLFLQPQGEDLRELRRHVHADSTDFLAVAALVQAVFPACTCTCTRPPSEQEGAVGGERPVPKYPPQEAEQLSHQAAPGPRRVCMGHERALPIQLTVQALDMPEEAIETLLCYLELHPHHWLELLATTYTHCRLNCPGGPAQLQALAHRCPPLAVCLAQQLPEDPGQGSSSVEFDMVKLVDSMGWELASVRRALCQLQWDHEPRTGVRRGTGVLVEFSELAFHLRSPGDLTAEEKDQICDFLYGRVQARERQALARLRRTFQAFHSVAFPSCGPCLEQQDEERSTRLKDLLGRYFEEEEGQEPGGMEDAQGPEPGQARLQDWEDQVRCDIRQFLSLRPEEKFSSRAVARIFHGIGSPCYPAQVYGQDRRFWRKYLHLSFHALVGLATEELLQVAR

[2] = target: T2, RecQ4 427-1208 del944-1032 (Homo sapiens, UniProt O94761 427-943+=GG+1032-1208, internal_change)
T2 sequence: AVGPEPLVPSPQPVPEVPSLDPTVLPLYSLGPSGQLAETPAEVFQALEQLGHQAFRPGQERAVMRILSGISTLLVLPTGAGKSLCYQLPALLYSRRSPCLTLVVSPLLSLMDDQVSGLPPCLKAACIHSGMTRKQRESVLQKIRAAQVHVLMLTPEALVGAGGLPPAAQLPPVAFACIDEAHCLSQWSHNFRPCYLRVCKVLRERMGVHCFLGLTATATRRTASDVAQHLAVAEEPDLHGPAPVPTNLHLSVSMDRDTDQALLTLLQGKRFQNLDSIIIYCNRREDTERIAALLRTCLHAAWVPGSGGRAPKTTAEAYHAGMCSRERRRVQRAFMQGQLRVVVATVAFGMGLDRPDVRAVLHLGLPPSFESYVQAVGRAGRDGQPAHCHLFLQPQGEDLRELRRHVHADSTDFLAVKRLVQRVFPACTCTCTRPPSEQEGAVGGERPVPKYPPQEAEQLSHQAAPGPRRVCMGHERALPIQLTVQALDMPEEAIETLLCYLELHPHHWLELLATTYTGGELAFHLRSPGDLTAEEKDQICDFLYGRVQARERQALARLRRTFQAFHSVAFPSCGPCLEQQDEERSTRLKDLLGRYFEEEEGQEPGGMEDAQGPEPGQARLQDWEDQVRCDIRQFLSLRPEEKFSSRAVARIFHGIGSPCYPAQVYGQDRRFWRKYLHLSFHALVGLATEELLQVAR

[3] = target: T3, RecQ4 427-1208 K843A/R844E/R848A (Homo sapiens, UniProt O94761 427-1208, K843A;R844E;R848A)
T3 sequence: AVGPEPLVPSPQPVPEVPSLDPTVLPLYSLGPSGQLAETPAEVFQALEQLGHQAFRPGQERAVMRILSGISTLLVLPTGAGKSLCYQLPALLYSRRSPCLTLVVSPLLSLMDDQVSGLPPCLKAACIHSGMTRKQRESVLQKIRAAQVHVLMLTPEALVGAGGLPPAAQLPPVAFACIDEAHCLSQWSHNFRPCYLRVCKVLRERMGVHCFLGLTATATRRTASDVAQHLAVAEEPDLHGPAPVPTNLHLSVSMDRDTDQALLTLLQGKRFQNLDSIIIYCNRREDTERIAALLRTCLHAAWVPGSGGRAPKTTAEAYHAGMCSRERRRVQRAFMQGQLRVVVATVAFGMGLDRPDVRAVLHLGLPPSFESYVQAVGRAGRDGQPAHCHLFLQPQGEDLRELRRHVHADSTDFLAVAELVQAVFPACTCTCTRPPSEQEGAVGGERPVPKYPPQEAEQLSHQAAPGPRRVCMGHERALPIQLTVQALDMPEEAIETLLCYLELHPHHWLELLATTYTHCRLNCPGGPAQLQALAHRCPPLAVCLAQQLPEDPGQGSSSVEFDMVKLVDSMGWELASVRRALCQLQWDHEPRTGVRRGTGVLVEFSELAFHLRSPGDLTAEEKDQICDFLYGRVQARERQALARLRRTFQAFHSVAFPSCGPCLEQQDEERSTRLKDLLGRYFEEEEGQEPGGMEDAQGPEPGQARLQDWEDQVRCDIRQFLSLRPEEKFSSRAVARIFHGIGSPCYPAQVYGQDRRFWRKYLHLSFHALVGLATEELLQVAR

Measured: binding result

CCATTCCACCCTCTATTTTTTTTTTTTTTT (ssDNA) [T3-Cy3]
binds: [1] | [2] | [3]
